In US10385103B2, “Cell-permeable (ICP)-SOCS3 recombinant protein and uses thereof” (CELLIVERY THERAPEUTICS, INC., priority 2014, dated 2019):
“Also recorded” adds a separate entry of the source.

How the values were obtained:
HepG2 cells = assay: Induction of apoptosis, Annexin V/7-AAD staining; assay type: cell-based, human; conditions: for induction of apoptosis (Annexin V), HepG2, dose dependence: example 20-1
Procedure: (§1) AGS cells (gastric carcinoma cell line) (American Type Culture Collection; ATCC) were seeded in a 12-well plate at a density of 1×10^5 cells/well, and then treated with 10 uM of aMTD/SD-fused SOCS3 for 14 hours. Cancer cell death was analyzed by Annexin V analysis. Annexin V/7-Aminoactinomycin D (7-AAD) staining was performed using flow cytometry according to the manufacturer's guidelines (BD Pharmingen, San Diego, Calif., USA). Briefly, cells were washed three times with ice-cold PBS. The cells were then resuspended in 100 μl of binding buffer and incubated with 1 μl of 7-AAD and 1 μl of annexin V-PE for 30 min in the dark at 37° C. Flow cytometric analysis was immediately performed using a guava easyCyte™ 8 Instrument (Merck Millipore, Darmstadt, Germany).
Annexin V/7-Aminoactinomycin D (7-AAD) staining was performed using flow cytometry according to the manufacturer's guidelines (BD Pharmingen, San Diego, Calif., USA). Briefly, 1×10^6 cells were washed three times with ice-cold PBS. The cells were then resuspended in 100 μl of binding buffer and incubated with 1 μl of 7-AAD and 1 μl of […] for 30 min in the dark at 4° C. Flow cytometric analysis was immediately performed using a guava easyCyte™ 8 Instrument (Merck Millipore, Darmstadt, Germany). In this regard, Cisplatin® (IC50: 30 μM) was used as a reference drug.
(§2) The effect of inducing apoptosis of Chang liver cells was measured in the same manner as in Example 11-2, except that as target cell lines, normal Chang liver cells and hepatocellular carcinoma cell lines, Hep3B, HepG2, Huh7, and SK-HEP-1 were used, and as a reference drug, 5-FU® (IC50: 40 μM) was used.

PANC-1-Luc cells = assay: Tumor targeting in orthotopic pancreatic cancer xenograft model (Alexa680 imaging); assay type: in vivo, Balb/c nu/nu mice; conditions: IV 40 mg/kg Alexa680-labeled protein; listed as iCP-SOCS3, 40 mg/kg
Procedure: Tumor-targeting of the anticancer agent iCP-SOCS3 (HM165S3B) recombinant proteins was investigated in an orthotopic xenograft model. The protocol was adapted from World J Gastroenterol. 2014 Jul. 28; 20(28): 9476-9485. […] After 7 weeks, the mice were IP injected with 100 μl of luciferin (Sigma-Aldrich, St. Louis, Mo., USA) and imaged by Xenogen IVIS-200 imaging system 15 minute later. As shown in FIG. 88 (A), pancreatic cancer model was well established.
The iCP-SOCS3 recombinant proteins were labeled and IV injected to the mice with 40 mg/kg according to a manual of Alexa680 kit (Thermo Fisher Scientific, San Jose, Calif., USA).

RAW 264.7 cells = assay: Mechanism of aMTD-mediated uptake (EDTA, proteinase K, taxol, antimycin, temperature; flow cytometry); assay type: cell-based; conditions: for protein uptake after proteinase K pretreatment: 5 ug/ml proteinase K 10 minutes; for protein uptake after taxol pretreatment: 20 uM taxol 30 minutes
Procedure: The mechanism of basic CPP (TAT and PolyR)-mediated intracellular delivery was also investigated in the same manner as in Example 7-1 and Example 14-2.
(1) RAW 264.7 cells were pretreated with 100 mM EDTA for 3 hours, and then treated with 10 uM of iCP-SOCS3 (HM165S3B) protein for 1 hour, followed by flow cytometry in the same manner as in Example 7-1 (FIG. 51A).
(2) RAW 264.7 cells were pretreated with 5 ug/ml of proteinase K for 10 minutes, and then treated with 10 uM of iCP-SOCS3 (HM165S3B) protein for 1 hour, followed by flow cytometry (FIG. 51B).
(3) RAW 264.7 cells were pretreated with 20 uM taxol for 30 minutes, and then treated with 10 uM of iCP-SOCS3 (HM165S3B) protein for 1 hour, followed by flow cytometry (FIG. 52A).
(4) RAW 264.7 cells were pretreated with 1 mM ATP and 10 uM antimycin singly or in combination for 2 hours, and then treated with 10 uM of iCP-SOCS3 (HM165S3B) protein for 1 hour, followed by flow cytometry (FIG. 52B).
(5) RAW 264.7 cells were left at 4° C. and 37° C. for 1 hour, respectively, and then treated with 10 uM of iCP-SOCS3 (HM165S3B) protein for 1 hour, followed by flow cytometry (FIG. 53).

AGS cells = assay: Induction of apoptosis by Annexin V/7-AAD staining in gastric carcinoma cells; assay type: cell-based; conditions: 10 uM, 14 hours
Procedure: as §1

normal Chang liver cells = assay: Induction of apoptosis, Annexin V/7-AAD staining; assay type: cell-based, human; conditions: example 20-2
Procedure: as §1, §2

Hep3B cells = assay: Induction of apoptosis, Annexin V/7-AAD staining; assay type: cell-based, human; conditions: example 20-2
Procedure: as §1, §2

Huh7 cells = assay: Induction of apoptosis, Annexin V/7-AAD staining; assay type: cell-based, human; conditions: example 20-2
Procedure: as §1, §2

SK-Hep-1 cells = assay: Induction of apoptosis, Annexin V/7-AAD staining; assay type: cell-based, human; conditions: example 20-2
Procedure: as §1, §2

STAT3 = assay: Cell-to-cell function: phospho-STAT3 in PANC-1 cells seeded with protein-treated RAW 264.7 cells (western blot); assay type: cell-based; conditions: RAW 264.7 treated with 5 μM protein 2 hour, seeded on PANC-1, 20 ng/ml IFN-γ 15 minutes
Procedure: For this, RAW 264.7 cells were treated with 5 μM of FITC-labeled HM165S3B, HTS3B for 2 hour and washed with PBS two times. Thereafter, they were seeded on PANC-1 cell, incubated for 2 hours and treated with 20 ng/ml of IFN-γ for 15 minutes, followed by Western blotting in the same manner as in Example 8-1. And Cell-to-cell protein transfer was assessed by flow cytometry.

[1] = then 10 uM protein 1 hour, listed as aMTD165/SD-fused SOCS3 recombinant proteins

B1: HM165S3B: His-tagged recombinant protein of aMTD165, human SOCS3 and solubilization domain B; prototype improved cell-permeable SOCS3 (protein)
chain: MGSSHHHHHHSSGLVPRGSHMALAVPVALAIVPVTHSKFPAAGMETSRPLDTSLRLKTFSSKSEYQLVVNAVRKLQESGFYWSAVTGGEANLLLSAEPAGTFLIRDSSDQRHFFTLSVKTQSGTKNLRIQCEGGSFSLQSDPRSTQPVPRFDCVLKLVHHYMETPPPGAPSFPSPPTEPSSEVPEQPSAQPLPGSPPRRAYYIYSGGEKIPLVLSRPLSSNVATLQHLCRKTVNGHLDSYEKVTQLPGPIREFLDQYDAPLGSMAEQSDKDVKYYTLEEIQKHKDSKSTWVILHHKVYDLTKFLEEHPGGEEVLGEQAGGDATENFEDVGHSTDARELSKTYIIGELHPDDRSKIAKPSETL
modifications: Amino acid sequence of HM165S3B
induction of apoptosis (Annexin V), HepG2, dose dependence (HepG2 cells): dose-dependently efficient inducer of apoptosis | induction of apoptosis (Annexin V), HepG2, dose dependence (HepG2 cells; listed as iCP-SOCS3): upon treatment of 10 uM or more of iCP-SOCS3, there was no difference in induction of apoptosis | induction of apoptosis (Annexin V), HepG2 (HepG2 cells; example 20-2): considerably efficient inducer of apoptosis | biodistribution / tumor accumulation (PANC-1-Luc cells): delivered to every part of the body at 5 minutes; also recorded: a large amount of the proteins were accumulated only in tumor | protein uptake after proteinase K pretreatment (RAW 264.7 cells; then 10 uM protein 1 hour): essentially unaffected | protein uptake after proteinase K pretreatment (RAW 264.7 cells; [1]): independent to cell surface receptor | protein uptake after taxol pretreatment (RAW 264.7 cells; then 10 uM protein 1 hour): essentially unaffected | protein uptake after taxol pretreatment (RAW 264.7 cells; [1]): not due to endocytosis | protein uptake after antimycin (ATP depletion) (RAW 264.7 cells; 1 mM ATP and 10 uM antimycin 2 hours, then 10 uM protein 1 hour): essentially unaffected | protein uptake after EDTA pretreatment (RAW 264.7 cells; 100 mM EDTA 3 hours, then 10 uM protein 1 hour): blocked | protein uptake at low temperature (RAW 264.7 cells; 4° C. vs 37° C., 10 uM protein 1 hour): blocked | induction of apoptosis (Annexin V) (AGS cells): showed high anticancer efficacy; also recorded: effects of inducing apoptosis | induction of apoptosis (Annexin V) (AGS cells; listed as aMTD165-fused SOCS3 recombinant protein): induced death of the largest number of cancer cells | induction of apoptosis (Annexin V), normal Chang liver cells (normal Chang liver cells): dose not induced apoptosis in normal cells | induction of apoptosis (Annexin V), Hep3B (Hep3B cells): considerably efficient inducer of apoptosis | induction of apoptosis (Annexin V), Huh7 (Huh7 cells): considerably efficient inducer of apoptosis | induction of apoptosis (Annexin V), SK-HEP-1 (SK-Hep-1 cells): considerably efficient inducer of apoptosis | phospho-STAT3 (cell-to-cell function) (STAT3): reduced
